Patent US20230050440A1 (Seagen, published 2023)
Changes are numbered by the printed parent chain.

T1: monomeric human TIGIT (Sino Biological 10917-H08H) (human, UniProt Q495A1 22-138, biotinylated in the MSD-SET assay)
T1 construct: Bought protein; also called Human TIGIT monomer; Human TIGIT-His; not shown: His tag
T1 sequence: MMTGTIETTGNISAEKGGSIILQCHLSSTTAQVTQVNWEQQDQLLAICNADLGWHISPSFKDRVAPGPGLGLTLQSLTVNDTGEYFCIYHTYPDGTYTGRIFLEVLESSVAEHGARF

T2: human TIGIT expressed on cells (human, UniProt Q495A1 22-244)
T2 construct: HEK 293 cells stably expressing human TIGIT, primary human T cells or Jurkat effector cells; the cell is named under assay; also called Human TIGIT HEK
T2 sequence: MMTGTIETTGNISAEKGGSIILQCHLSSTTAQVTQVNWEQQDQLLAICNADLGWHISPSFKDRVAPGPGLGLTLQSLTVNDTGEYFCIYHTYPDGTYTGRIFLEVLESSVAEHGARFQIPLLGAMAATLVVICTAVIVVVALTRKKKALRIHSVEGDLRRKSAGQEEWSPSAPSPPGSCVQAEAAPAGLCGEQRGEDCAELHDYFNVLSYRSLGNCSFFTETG

B1: Clone 16C (antibody, V domains shown)
VH: QVQLVQSGAEVKKPGSSVKVSCKASGGTFREYAISWVRQAPGQGLEWMGGIHPIFGTARYAQKFQGRVTITADESTSTAYMELSSLRSEDTAVYYCTRQSTWHKLYGTDVWGQGTTVTVSS
VL: DIQMTQSPSSVSASVGDRVTITCRASQGISSWLAWYQQKPGKAPKLLIYAASSLQSGVPSRFSGSGSGTDFTLTISSLQPEDFATYYCQQGDSLPPTFGGGTKVEIK
B2: Clone 16E (antibody, V domains shown)
VH: B1 VH with R30S, E31D, A33P, H52I, F55V, T57G, R59N, T97A, L105V
VL: B1 VL
B3: Clone 16D (antibody, V domains shown)
VH: B1 VH with R30S, E31D, A33P, H52I, F55V, T57G, R59N, Y106F
VL: B1 VL
B4: Clone 25A (antibody, V domains shown)
VH: QVQLVQSGAEVKKPGASVKVSCKASGYTFTSYAISWVRQAPGQGLEWMGWISAYNGNTKYAQKLQGRVTMTTDTSTSTAYMELRSLRSDDTAVYYCARDLSSFWSGDVLGAFDIWGQGTMVTVSS
VL: DIQMTQSPSSLSASVGDRVTITCRASQSISSYLNWYQQKPGKAPKLLIYAASSLQSGVPSRFSGSGSGTDFTLTISSLQPEDFATYYCQQSVPPRTFGGGTKVEIK
B5: Clone 25B (antibody, V domains shown)
VH: B4 VH with A33P, S35G, A53S, K59N
VL: B4 VL
B6: Clone 25C (antibody, V domains shown)
VH: B4 VH with A33P, S35G, A53S, K59N, D99G, L100A
VL: B4 VL
B7: Clone 2C (antibody, V domains shown)
VH: EVQLVESGGGLVQPGGSLRLSCAASGFTFTDYYMDWVRQAPGKGLEWVGRTRNKVNSYYTEYAASVKGRFTISRDDSKNSLYLQMNSLKTEDTAVYYCARGQYYYGSDRRGYYYMDVWGQGTTVTVSS
VL: EIVLTQSPGTLSLSPGERATLSCRASQSVSSSYLAWYQQKPGQAPRLLIYGASSRATGIPDRFSGSGSGTDFTLTISRLEPEDFAVYYCQQAVPSPLTFGGGTKVEIK
B8: Clone 13D (antibody, V domains shown)
VH: QVQLVQSGAEVKKPGSSVKVSCKASGGTFLSSAISWVRQAPGQGLEWMGSIIPYFGKANYAQKFQGRVTITADESTSTAYMELSSLRSEDTAVYYCARGPSEVKGILGYVWFDPWGQGTLVTVSS
VL: not shown
B9: Clone 13B (antibody, V domains shown)
VH: B8 VH with L30S, S31A, S32W, K104S
VL: not shown
B10: Clone 13C (antibody, IgG1, V domains shown)
VH: B8 VH with Y54L
VL: not shown
B11: Clone 13A (antibody, V domains shown)
VH: B8 VH with I51L, K57T, K104G, G105A
VL: not shown

What follows are binders tested against T3, cyno TIGIT-Fc (cynomolgus monkey) (assay: BLI (ForteBio), IgG on sensor, avid).
T3 construct: not shown: Fc part
T3 sequence (chain, as listed by the source limits assumed): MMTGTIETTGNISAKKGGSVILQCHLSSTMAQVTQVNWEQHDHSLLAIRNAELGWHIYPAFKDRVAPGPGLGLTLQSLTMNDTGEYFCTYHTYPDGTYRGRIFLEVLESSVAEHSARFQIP

Row | Kd [pM] | Binder
1 | 4250 | B1
2 | 1360 | B2
3 | 1150 | B3
4 | 1640 | B4
5 | 1400 | B5
6 | 1240 | B6
7 | 984 | B7

The binders below were run against T1, monomeric human TIGIT (Sino Biological …) (assay: BLI (ForteBio), IgG on sensor, monovalent).
Description: Briefly, ForteBio affinity measurements were performed by loading IgGs on-line onto AHQ sensors. Sensors were equilibrated off-line in assay buffer for 30 minutes and then monitored on-line for 60 seconds for baseline establishment. Sensors with loaded IgGs were exposed to 100 nM antigen (dimeric Fc-fusion antigen or monomeric antigen) for 3 minutes, and afterwards were transferred to assay buffer for 3 minutes for off-rate measurement. All binding and dissociation kinetics were analyzed using the 1:1 binding model.
The optimized antibodies were also tested for ligand blocking in a CD155 ligand competition assay, and for binding to human TIGIT HEK, cyno TIGIT HEK, mouse TIGIT HEK, and parental HEK cell lines, as described above.

Row | Kd [pM] | Binder
8 | 911 | B1
9 | 778 | B2
10 | 596 | B3
11 | 1100 | B4
12 | 1160 | B5
13 | 697 | B6
14 | 571 | B8
15 | 610 | B9
16 | 563 | B10
17 | 627 | B11
18 | 518 | B7

The binders below were run against T1, monomeric human TIGIT (Sino Biological …) (assay: MSD-SET solution equilibrium titration, biotinylated antigen at 50 pM).
Description: Antibodies (20 nM in PBS) were coated onto standard bind MSD-ECL plates overnight at 4° C. or at room temperature for 30 min. Plates were then blocked with 1% BSA for 30 min with shaking at 700 rpm, followed by three washes with wash buffer (PBSF+0.05% Tween 20). SET samples were applied and incubated on the plates for 150s with shaking at 700 rpm followed by one wash. Antigen captured on a plate was detected with 250 ng/ml sulfotag-labeled streptavidin in PBSF by incubation on the plate for 3 min. The plates were washed three times with wash buffer and then read on the MSD Sector Imager 2400 instrument using 1× Read Buffer T with surfactant. The percent free antigen was plotted as a function of titrated antibody in Prism and fit to a quadratic equation to extract the KD. To improve throughput, liquid handling robots were used throughout MSD-SET experiments, including SET sample preparation.

Row | Kd [pM] | Binder
19 | 6.3 | B1
20 | 11 | B2
21 | 13 | B3
22 | 18 | B4
23 | 22 | B5
24 | 5.6 | B6
25 | 5 | B8
26 | 5.3 | B9
27 | 8.6 | B10
28 | 25 | B11
29 | 16 | B7

What follows are binders tested against T2, human TIGIT expressed on cells (assay: flow cytometry on HEK 293 cells expressing the target, MFI over parental HEK 293;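 also: bound antibody detected with PE-labelled anti-human IgG, 15 min on ice. FOB equals median fluorescence on TIGIT-positive cells divided by that on target-negative cells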).
Description: (§1) HEK 293 cells were engineered to stably express high levels of human, mouse or cynomolgus monkey TIGIT by lentiviral transduction. […] Cells were then washed twice with wash buffer and incubated with anti-human IgG conjugated to PE for 15 minutes on ice. Cells were then washed twice with wash buffer and analyzed by flow cytometry on a FACS Canto II instrument (BD Biosciences). Fold over background (FOB) was calculated as the median fluorescence intensity (MFI) of the anti-TIGIT clone bound to target-positive cells divided by the MFI of the anti-TIGIT clone bound to target-negative cells.

Row | FOB (Fold Over Background) [fold] | Binder
30 | 208 | B1
31 | 195 | B2
32 | 199 | B3
33 | 207 | B4
34 | 222 | B5
35 | 216 | B6
36 | 193 | B7

Each binder was assayed against T4, cynomolgus monkey TIGIT expressed on cells (cynomolgus monkey) in the same assay as above.
T4 construct: HEK 293 cells stably expressing cynomolgus monkey TIGIT or cynomolgus T cells; also called Cyno TIGIT HEK
T4 sequence (chain, as listed by the source limits assumed): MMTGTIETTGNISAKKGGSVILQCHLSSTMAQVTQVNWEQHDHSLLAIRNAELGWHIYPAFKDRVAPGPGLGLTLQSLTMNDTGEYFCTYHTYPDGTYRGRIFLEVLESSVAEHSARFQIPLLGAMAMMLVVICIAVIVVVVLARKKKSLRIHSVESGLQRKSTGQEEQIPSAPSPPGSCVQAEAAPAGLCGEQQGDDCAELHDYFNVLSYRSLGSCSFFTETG
Description: as §1

Row | FOB (Fold Over Background) [fold] | Binder
37 | 157 | B1
38 | 186 | B2
39 | 241 | B3
40 | 238 | B4
41 | 291 | B5
42 | 286 | B6
43 | 224 | B7
